Laboratory results taken from paper PMC12830992, “Insights into the self-assembly and interaction of sars-cov-2 fusion peptides with biomimetic plasma membranes” (Nature Communications, 2025).

Molecular target: the molecule itself
Assay: atomic force microscopy (topography); peptide mixed at 5 mol% with plasma membrane lipid mixture, Langmuir-Blodgett monolayer compressed to 20 mN/m (liquid-expanded phase), transferred onto mica, imaged in air at room temperature, Peak Force mode

B1: SARS-CoV-2 Spike fusion peptide FP1 (residues 816-837) (peptide)
peptide: SFIEDLLFNKVTLADAGFIKQY
notes: Spike (S) glycoprotein of SARS-CoV-2, S2 subunit fusion domain, residues 816-837
B1: binds.

B2: SARS-CoV-2 Spike fusion peptide FP2 (residues 835-856) (peptide)
peptide: KQYGDCLGDIAARDLICAQKFN
notes: Spike (S) glycoprotein of SARS-CoV-2, S2 subunit fusion domain, residues 835-856
B2: binds.
